Earlier results, collected in article PMC2880562.

Target: Arginine repressor ArgR (trimer) (Escherichia coli) (UniProt P0A6D0)
Experiment: analytical ultracentrifugation

Substance: Arginine repressor ArgR (trimer) (from UniProt P0A6D0)
- Kd: < 2.5 nM
